Data published in the Human Domainome abundance scans (Beltran et al. 2025).
± gives the uncertainty stated by the source.

B1: Tumor protein 63, residues 545 to 610; numbered along this chain, Q9H3D4 (parent)
chain: TDCSIVSFLARLGCSSCLDYFTTQGLTTIYQIEHYSMDDLASLKIPEQFRHAIWKGILDHRQLHEF
B2: Myocardin-related transcription factor A, residues 341 to 383; numbered along this chain, Q969V6 (parent)
chain: GALPANLDDMKVAELKQELKLRSLPVSGTKTELIERLRAYQDQ

Variants of: B1
Test: abundance fitness (aPCA) (normalised: wild type 0, dead -1); higher = more abundant; growth selection in yeast, the domain comes from the species named
Settings: Homo sapiens

Variant | abundance fitness
TDCSIVSFLARLGCSSCLDYFTTQGLTTIYQIEHYSMDDLASLKIPEQFRHAIWKGILDHRQLHMF | -0.089 ± 0.076
TDCSIVSFLARLGCSSCLDYFTTQGLTTIYQIEHYSMDDLASLKIPEQFRHAIWKGILDHRQLHPF | -0.082 ± 0.066
TDCSIVSFLARLGCSSCLDYFTTQGLTTIYQIEHYSMDDLASLKIPEQFRHAIWKGILDHRQLHTF | -0.049 ± 0.066
TDCSIVSFLARLGCSSCLDYFTTQGLTTIYQIEHYSMDDLASLKIPEQFRHAIWKGILDHRQLHQF | 0.113 ± 0.14
TDCSIVSFLARLGCSSCLDYFTTQGLTTIYQIEHYSMDDLASLKIPEQFRHAIWKGILDHRQLHDF | 0.081 ± 0.12
TDCSIVSFLARLGCSSCLDYFTTQGLTTIYQIEHYSMDDLASLKIPEQFRHAIWKGILDHRQLHVF | -0.093 ± 0.039
TDCSIVSFLARLGCSSCLDYFTTQGLTTIYQIEHYSMDDLASLKIPEQFRHAIWKGILDHRQLHLF | -0.08 ± 0.035
TDCSIVSFLARLGCSSCLDYFTTQGLTTIYQIEHYSMDDLASLKIPEQFRHAIWKGILDHRQLHHF | -0.072 ± 0.087
TDCSIVSFLARLGCSSCLDYFTTQGLTTIYQIEHYSMDDLASLKIPEQFRHAIWKGILDHRQLHKF | 0.002 ± 0.048
TDCSIVSFLARLGCSSCLDYFTTQGLTTIYQIEHYSMDDLASLKIPEQFRHAIWKGILDHRQLHNF | -0.027 ± 0.068
TDCSIVSFLARLGCSSCLDYFTTQGLTTIYQIEHYSMDDLASLKIPEQFRHAIWKGILDHRQLHYF | -0.184 ± 0.079
TDCSIVSFLARLGCSSCLDYFTTQGLTTIYQIEHYSMDDLASLKIPEQFRHAIWKGILDHRQLHRF | -0.065 ± 0.046
TDCSIVSFLARLGCSSCLDYFTTQGLTTIYQIEHYSMDDLASLKIPEQFRHAIWKGILDHRQLHIF | -0.099 ± 0.096
TDCSIVSFLARLGCSSCLDYFTTQGLTTIYQIEHYSMDDLASLKIPEQFRHAIWKGILDHRQLHEM | 0.028 ± 0.085
TDCSIVSFLARLGCSSCLDYFTTQGLTTIYQIEHYSMDDLASLKIPEQFRHAIWKGILDHRQLHEC | 0.033 ± 0.2
TDCSIVSFLARLGCSSCLDYFTTQGLTTIYQIEHYSMDDLASLKIPEQFRHAIWKGILDHRQLHEP | 0.086 ± 0.063
TDCSIVSFLARLGCSSCLDYFTTQGLTTIYQIEHYSMDDLASLKIPEQFRHAIWKGILDHRQLHEE | -0.678 ± 0.22
TDCSIVSFLARLGCSSCLDYFTTQGLTTIYQIEHYSMDDLASLKIPEQFRHAIWKGILDHRQLHES | -0.019 ± 0.046
TDCSIVSFLARLGCSSCLDYFTTQGLTTIYQIEHYSMDDLASLKIPEQFRHAIWKGILDHRQLHEH | 0.027 ± 0.056
TDCSIVSFLARLGCSSCLDYFTTQGLTTIYQIEHYSMDDLASLKIPEQFRHAIWKGILDHRQLHEV | 0.071 ± 0.051
TDCSIVSFLARLGCSSCLDYFTTQGLTTIYQIEHYSMDDLASLKIPEQFRHAIWKGILDHRQLHEI | -0.011 ± 0.051
TDCSIVSFLARLGCSSCLDYFTTQGLTTIYQIEHYSMDDLASLKIPEQFRHAIWKGILDHRQLHEG | -0.214 ± 0.068
TDCSIVSFLARLGCSSCLDYFTTQGLTTIYQIEHYSMDDLASLKIPEQFRHAIWKGILDHRQLHEY | 0.044 ± 0.1
TDCSIVSFLARLGCSSCLDYFTTQGLTTIYQIEHYSMDDLASLKIPEQFRHAIWKGILDHRQLHED | -0.119 ± 0.46
TDCSIVSFLARLGCSSCLDYFTTQGLTTIYQIEHYSMDDLASLKIPEQFRHAIWKGILDHRQLHER | -0.013 ± 0.068
TDCSIVSFLARLGCSSCLDYFTTQGLTTIYQIEHYSMDDLASLKIPEQFRHAIWKGILDHRQLHEL | -0.022 ± 0.072
TDCSIVSFLARLGCSSCLDYFTTQGLTTIYQIEHYSMDDLASLKIPEQFRHAIWKGILDHRQLHEA | 0.05 ± 0.12

Variants of: B2
Test: as above
Settings: Homo sapiens

Variant | abundance fitness
GALIANLDDMKVAELKQELKLRSLPVSGTKTELIERLRAYQDQ | 0.301 ± 0.12
GALGANLDDMKVAELKQELKLRSLPVSGTKTELIERLRAYQDQ | 0.217 ± 0.064
GALVANLDDMKVAELKQELKLRSLPVSGTKTELIERLRAYQDQ | 0.29 ± 0.098
GALTANLDDMKVAELKQELKLRSLPVSGTKTELIERLRAYQDQ | 0.243 ± 0.078
GALDANLDDMKVAELKQELKLRSLPVSGTKTELIERLRAYQDQ | 0.213 ± 0.066
GALEANLDDMKVAELKQELKLRSLPVSGTKTELIERLRAYQDQ | 0.349 ± 0.11
GALMANLDDMKVAELKQELKLRSLPVSGTKTELIERLRAYQDQ | 0.196 ± 0.15
GALYANLDDMKVAELKQELKLRSLPVSGTKTELIERLRAYQDQ | 0.29 ± 0.14
GALSANLDDMKVAELKQELKLRSLPVSGTKTELIERLRAYQDQ | 0.245 ± 0.065
GALCANLDDMKVAELKQELKLRSLPVSGTKTELIERLRAYQDQ | 0.211 ± 0.081
GALFANLDDMKVAELKQELKLRSLPVSGTKTELIERLRAYQDQ | -0.263 ± 0.24
GALWANLDDMKVAELKQELKLRSLPVSGTKTELIERLRAYQDQ | 0.057 ± 0.081
GALHANLDDMKVAELKQELKLRSLPVSGTKTELIERLRAYQDQ | 0.093 ± 0.1
GALQANLDDMKVAELKQELKLRSLPVSGTKTELIERLRAYQDQ | 0.293 ± 0.2
GALKANLDDMKVAELKQELKLRSLPVSGTKTELIERLRAYQDQ | 0.17 ± 0.12
GALRANLDDMKVAELKQELKLRSLPVSGTKTELIERLRAYQDQ | 0.219 ± 0.061
GALAANLDDMKVAELKQELKLRSLPVSGTKTELIERLRAYQDQ | 0.079 ± 0.059
GALLANLDDMKVAELKQELKLRSLPVSGTKTELIERLRAYQDQ | 0.322 ± 0.11
GALPAHLDDMKVAELKQELKLRSLPVSGTKTELIERLRAYQDQ | -0.661 ± 0.24
GALPAALDDMKVAELKQELKLRSLPVSGTKTELIERLRAYQDQ | -0.229 ± 0.084
GALPAGLDDMKVAELKQELKLRSLPVSGTKTELIERLRAYQDQ | 0.044 ± 0.074
GALPADLDDMKVAELKQELKLRSLPVSGTKTELIERLRAYQDQ | -0.189 ± 0.1
GALPAELDDMKVAELKQELKLRSLPVSGTKTELIERLRAYQDQ | -0.007 ± 0.071
GALPAKLDDMKVAELKQELKLRSLPVSGTKTELIERLRAYQDQ | 0.157 ± 0.074
GALPAFLDDMKVAELKQELKLRSLPVSGTKTELIERLRAYQDQ | -0.431 ± 0.1
GALPFNLDDMKVAELKQELKLRSLPVSGTKTELIERLRAYQDQ | -0.012 ± 0.17
